Each block holds one molecule with its values, some of them ahead of it.
Assays:
[1] = target: T1, rat CD5 antigen present on rat T cells (rat) (UniProt P51882); assay: flow cytometry, spleen T cells of a rat 3 h after 0.5 mg/kg i.v.
T1 sequence (looked up): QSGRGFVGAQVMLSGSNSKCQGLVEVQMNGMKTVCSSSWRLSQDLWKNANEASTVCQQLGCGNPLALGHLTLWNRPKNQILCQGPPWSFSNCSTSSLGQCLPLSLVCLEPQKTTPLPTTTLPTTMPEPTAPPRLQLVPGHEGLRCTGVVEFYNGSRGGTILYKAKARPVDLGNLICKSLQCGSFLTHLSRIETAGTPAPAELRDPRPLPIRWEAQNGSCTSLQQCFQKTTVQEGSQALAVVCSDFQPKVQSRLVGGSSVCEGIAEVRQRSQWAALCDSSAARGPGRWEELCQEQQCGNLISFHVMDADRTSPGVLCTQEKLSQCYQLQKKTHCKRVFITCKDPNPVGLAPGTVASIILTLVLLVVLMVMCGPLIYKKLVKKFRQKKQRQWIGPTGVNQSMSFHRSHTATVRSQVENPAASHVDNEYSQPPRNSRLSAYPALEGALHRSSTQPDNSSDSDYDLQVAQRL

[2] = target: T1, rat CD5 antigen present on rat T cells (rat); assay: flow cytometry, blood T cells of a rat 3 h after 0.5 mg/kg i.v.
[3] = target: T1, rat CD5 antigen present on rat T cells (rat); assay: flow cytometry, lymph node T cells of a rat 3 h after 0.5 mg/kg i.v.
[4] = target: T1, rat CD5 antigen present on rat T cells (rat); assay: flow cytometry, spleen T cells of a rat 3 h after 0.5 mg/kg i.v. (isotype matched negative control)
[5] = target: T1, rat CD5 antigen present on rat T cells (rat); assay: flow cytometry, lymph node T cells of a rat 3 h after 0.5 mg/kg i.v. (isotype matched negative control)
[6] = target: T1, rat CD5 antigen present on rat T cells (rat); assay: flow cytometry, blood T cells of a rat 3 h after 0.5 mg/kg i.v. (isotype matched negative control)

% of CD4 cells also positive for mouse IgG1 [1]: 84.8%
% of CD8 cells also positive for mouse IgG1 [1]: 73.6%
% of CD4 cells also positive for mouse IgG1 [2]: 96.2%
% of CD8 cells also positive for mouse IgG1 [2]: 70.2%
% of CD4 cells also positive for mouse IgG1 [3]: 96.2%
% of CD8 cells also positive for mouse IgG1 [3]: 96.8%
Molecule: OX19 MoAb (antibody)

% of CD4 cells also positive for mouse IgG1 [4]: 14.8%
% of CD8 cells also positive for mouse IgG1 [4]: 20.6%
% of CD4 cells also positive for mouse IgG1 [5]: 4.2%
% of CD8 cells also positive for mouse IgG1 [5]: 6.5%
% of CD4 cells also positive for mouse IgG1 [6]: 6.7%
% of CD8 cells also positive for mouse IgG1 [6]: 5.7%
B1: MoAb H65 (antibody, V domains shown)
VH: QIQLVQSGPELKKPGETVKISCKASGYTFTNYGMNWVKQAPGKGLRWMGWINTHTGEPTYADDFKGRFAFSLETSASTAYLQINNLKNEDTATYFCTRRGYDWYFDVWGAGTTVTVSS
VL: DIKMTQSPSSMYASLGERVTITCKASQDINSYLSWFQQKPGKSPKTLIYRANRLVDGVPSRFSGSGSGQDYSLTISSLDYEDMGIYYCQQYDESPWTFGGGTKLEIK

Source: patent publication US20050239141A1
